Laboratory results taken from publication doi:10.1101/2025.09.17.676191 (bioRxiv, 2025).

Target: the molecule itself
Assay: cryo-EM structure

B1: wild-type mouse TRPV3 channel (natural protein, UniProt Q8K424 1-791, looked up)
chain: MNAHSKEMAPLMGKRTTAPGGNPVVLTEKRPADLTPTKKSAHFFLEIEGFEPNPTVTKTSPPIFSKPMDSNIRQCLSGNCDDMDSPQSPQDDVTETPSNPNSPSANLAKEEQRQKKKRLKKRIFAAVSEGCVEELRELLQDLQDLCRRRRGLDVPDFLMHKLTASDTGKTCLMKALLNINPNTKEIVRILLAFAEENDILDRFINAEYTEEAYEGQTALNIAIERRQGDITAVLIAAGADVNAHAKGVFFNPKYQHEGFYFGETPLALAACTNQPEIVQLLMENEQTDITSQDSRGNNILHALVTVAEDFKTQNDFVKRMYDMILLRSGNWELETMRNNDGLTPLQLAAKMGKAEILKYILSREIKEKPLRSLSRKFTDWAYGPVSSSLYDLTNVDTTTDNSVLEIIVYNTNIDNRHEMLTLEPLHTLLHTKWKKFAKYMFFLSFCFYFFYNITLTLVSYYRPREDEDLPHPLALTHKMSWLQLLGRMFVLIWATCISVKEGIAIFLLRPSDLQSILSDAWFHFVFFVQAVLVILSVFLYLFAYKEYLACLVLAMALGWANMLYYTRGFQSMGMYSVMIQKVILHDVLKFLFVYILFLLGFGVALASLIEKCSKDKKDCSSYGSFSDAVLELFKLTIGLGDLNIQQNSTYPILFLFLLITYVILTFVLLLNMLIALMGETVENVSKESERIWRLQRARTILEFEKMLPEWLRSRFRMGELCKVADEDFRLCLRINEVKWTEWKTHVSFLNEDPGPIRRTADLNKIQDSSRSNSKTTLYAFDELDEFPETSV
- stoichiometry N: 4
